According to the DeepSol protein solubility set:

Experiment: soluble on expression in E. coli; label from the status in PepcDB or PDB records
With “GMGLALCGAAAQAQEKPNFLIIQCDHLTQRVVGAYGQTQGCTLPIDEVASRGVIFSNAYVGCPLSQPSRAALWSGMMPHQTNVRSNSSEPVNTRLPENVPTLGSLFSESGYEAVHFGKTHDMGSLRGFKHKEPVAKPFTDPEFPVNNDSFLDVGTCEDAVAYLSNPPKEPFICIADFQNPHNICGFIGENAGVHTDRPISGPLPELPDNFDVEDWSNIPTPVQYICCSHRRMTQAAHWNEENYRHYIAAFQHYTKMVSKQVDSVLKALYSTPAGRNTIVVIMADHGDGMASHRMVTKHISFYDEMTNVPFIFAGPGIKQQKKPVDHLLTQPTLDLLPTLCDLAGIAVPAEKAGISLAPTLRGEKQKKSHPYVVSEWHSEYEYVTTPGRMVRGPRYKYTHYLEGNGEELYDMKKDPGERKNLAKDPKYSKILAEHRALLDDYITRSKDDYRSLKVDADPRCRNHTPGYPSHEGPGAREILKRK” the “soluble on expression in E. coli” value was “soluble”.
With “MGSDKIHHHHHHMDERWMVMKITIVFENHAGYRKGLIGYHGFSALVEANGYRVLVDTGTDGKVLLNNMSELGISPDDIDALFITHGHYDHTGGLRELLSARTEALDIYAHPGIFKRRLALKPKKREIGIPFTREELEELGGKFILSDKSKEILPGFISSGEIERITWDRAVGYFPDGSKDPVRDDMALIVEEGSKSVVITGCGHSGIINIAIHSKKLTNNRIAALIGGFHLKGIERSLLDEAVKKLRELEIEKLYPGHCTGIEEFAYLWSKFGNVEGIHVGKEIKI” the “soluble on expression in E. coli” value was “not soluble”.
With “GAMGNKEKADQQKAITDIVALENALDMYKLDNSVYPTTDQGLEALVTKPSSPEPRNYRNGGYIKRLPKDPWGNEYQYMSPGDKGTIDIFTLGADGQEGGEGAAADIGNWNMQDFQ” the “soluble on expression in E. coli” value was “soluble”.
In the case of “MKKTLYIFQNGELRRKDHSLYFETEERKRYIPVENTNDIYIFGEVDVSKRFLEFAAQKEIIVHYFNHYGYYVGSFYPREHLNSGHVVLKQAEHYIDPAKRLELACLFVQGSIRQMERVLKYYRSRLSDPEELEKALQLIEREEGKLSQANTVEQLMAVEGHIREAYYASFDAILRHPDFVFEKRTKRPPHNRLNALISFGNSIVYTMCLSEIYKTYLDPRIGFLHSTNFRRFSLNLDIAEIFKPIIVDRLIFTLVNKRMLSSKHFEKLTNGIVLNEEGRKLFVSELEKKMQTTVQHRHLGKSVSYRRLIRLELYKVQKHILGEKMYEPYAARW”, the “soluble on expression in E. coli” value is reported as “not soluble”.
For “MTMTTMPESLNSPVSGKAVFMEFGPPNQQMSPSPMSHGHYSMHCLHSAGHSQPDGAYSSASSFSRPLGYPYVNSVSSHASSPYISSVQSYPGSASLAQSRLEDPGQDLVPKQAIQVQEADEAGWGGSGG”, the “soluble on expression in E. coli” value was “soluble”.
With “MSLNLEKINELTAQDMAGVNAAILEQLNSDVQLINQLGYYIVSGGGKRIRPMIAVLAARAVGYEGNAHVTIAALIEFIHTATLLHDDVVDESDMRRGKATANAAFGNAASVLVGDFIYTRAFQMMTSLGSLKVLEVMSEAVNVIAEGEVLQLMNVNDPDITEENYMRVIYSKTARLFEAAAQCSGILAGCTPEEEKGLQDYGRYLGTAFQLIDDLLDYNADGEQLGKNVGDDLNEGKPTLPLLHAMHHGTPEQAQMIRTAIEQGNGRHLLEPVLEAMNACGSLEWTRQRAEEEADKAIAALQVLPDTPWREALIGLAHIAVQRDREGHHHHHH” the “soluble on expression in E. coli” value was “soluble”.
With “MGSDKIHHHHHHMSSEEDYFDELEYDLADEVNEEKEDIQTKKLTTVNCQTEKFNPFEILPESIELFRTLALISPDRLSLSETAQILPKIVDLKRILQQQEIDFIKLLPFFNEIIPLIKSNIKLMHNFLISLYSRRFPELSSLIPSPLQYSKVISILENENYSKNESDELFFHLENKAKLTREQILVLTMSMKTSFKNKEPLDIKTRTQILEANSILENLWKLQEDIGQYIASKISIIAPNVCFLVGPEIAAQLIAHAGGVLEFSRIPSCNIASIGKNKHLSHELHTLESGVRQEGYLFASDMIQKFPVSVHKQMLRMLCAKVSLAARVDAGQKNGDRNTVLAHKWKAELSKKARKLSEAPSISETKALPIPEDQPKKKRAGRKFRKYKEKFRLSHVRQLQNRMEFGKQEQTVLDSYGEEVGLGMSNTSLQQAVGATSGSRRSAGNQAKLTKVMKHRISEANQQADEFLISLGHNTEQPNLSPEMVQMHKKQHTNPEEETNWFSGHG” the “soluble on expression in E. coli” value was “not soluble”.
With “MGSDKIHHHHHHSPTTTVTTTDASVTTTPPTTTPPTTAVVTDCTTCTAALITLTQGTDGAVDATPVEGVDATGCATITYTCENTPVDAQNVIFLTFYGGGIDRGVDQGTGSLNVLLNCVDGAWVRGGLVIDEILCQVI” the “soluble on expression in E. coli” value was “not soluble”.
For “MAAQESLHVKTPLRDSMALSKVAGTSVFLKMDSSQPSGSFKIRGIGHLCKMKAKQGCKHFVCSSAGNAGMATAYAARRLGLPATIVVPSTTPALTIERLKNEGATVEVVGEMLDEAIQLAKALEKNNPGWVYISPFDDPLIWEGHTSLVKELKETLSAKPGAIVLSVGGGGLLCGVVQGLREVGWEDVPIIAMETFGAHSFHAAVKEGKLVTLPKITSVAKALGVNTVGAQTLKLFYEHPIFSEVISDQEAVTAIEKFVDDEKILVEPACGAALAAVYSGVVCRLQAEARLQTPLASLVVIVCGGSNISLAQLQALKAQLGLNELLK”, the “soluble on expression in E. coli” value was “soluble”.
With “MWKTASDKGLGHLLRDVWSLLNEEERELLDKEIQPFPCKKASTVFSEGDIPNNLFYLYEGKIKILREGVYGRFHISRIVKPGQFFGMRPYFAEETCSSTAIAVENSKVLAIPVEAIEALLKGNTSFCRYFLKALAKELGYAERRTVTLTQKHVRGRLAETLLILKENFGFENDGATLSIYLSREELATLSNMTVSNAIRTLSTFVSERMLALDGKRIKIIDCDRLQKTARSG” the “soluble on expression in E. coli” value was “soluble”.
With “MECYVFTPKGRIIKLPRGATIVDFAYAVHTDIGNSCVSARVNRILAPLHSVLENGQTIEIITAPWARPNPLEHHHHHH” the “soluble on expression in E. coli” value was “not soluble”.
With “MGSDKIHHHHHHMEPEILFRKIDDLGEGPTYDERRKRVYWVDIRGKKFHYLSLENSEMKTFQSIGMISSIVPTDRDLMAATVDHGLYLIDDAGKHTLLTEVEKDQKSTRFNDGKADPFGNYVAGTMDLEEKRPIGSLYVLTGKTIRRILENLTISNGIAWNTKKKVFYHIDTPKRRVDAYSYDGKMNIERLGTAVDFRNEVGNPDGMTIDADGNLWVAHWGGNRITIHDPERQKKIDEIIFPAQNITSCVFAGNGLRDLYVSSASNGNPDDMGGSLFVVHTDYAGSKTFTFSVP” the “soluble on expression in E. coli” value was “not soluble”.
With “MSLARARMKERGVEVSDIAELVFFLQKKYHPDLTIDECTLNVNRVLAKREVQNAILTGIELDVLAEQKKLSEPLQTMLEIDESLYGVDEVLAFSIVNIYGSIGFTNYGYIDKEKPGILKRLNDKSTGECHTFLDDIVGAISAAASSRLAHREGHHHHHH” the “soluble on expression in E. coli” value was “not soluble”.
For “MEKIERLRSAFDEAGIDGILLTNEHSRRYMANFTGTAGVVLISKKRAQFITDFRYVEQASKQAVGYEIVQHAGLIIDEVAKQVKELGIQKLGFEQDTLTYSSYSAHKEAIDAEFIPTSGLVEKLRLIKTDSEIKILKEAAQIADAAFEHILSFIRPGVSEIEVSNELEFFMRKQGATSSSFDIIVASGLRSALPHGVASEKVIETGDFVTLDFGAYYKGYCSDITRTIAVGEPSDKLKEIYNIVLEAQLRGVNGIKAGLTGREADALTRDYITEKGYGEYFGHSTGHGIGLEIHEAPGLAFRSDTVLEPGMAVTVEPGIYIPGIGGVRIEDDIIVTSEGNEVITKSPKELIIL”, the “soluble on expression in E. coli” value was “not soluble”.
For “MSLKLVKLETFSTEFVCFVRATAEDGAQGWGQVAPYYADITAQVLHRQVAPYALGMACEDIDAMLDIVRDREHKFPGSYLRRAMGGVDTALWDMHGRRAGKPVCVLIGGTPGPVRAYGSSMKRDITPRDEAARLVRLRDEQGFDAFKFRIGAEVGRDRDEWPGRTEEIVPTMRRAMGDDVALLVDANSCYSPARAIEVGRMLEQHGISHYEEPCPYWEFAQTKEVTDTLDLDITGGEQDCLMERWQTMIADRVVDVLQPDICYLGGLSRTLRVARMAEAAGMPITPHAANLSMVTLFTMHLLRAIPNAGKYLEFSIEGLDYYPWQQGLFTSDPYRIEEGHATVTDAPGWGVDVNPDWLARSDYRVSELGEGHHHHHH”, the “soluble on expression in E. coli” value was “soluble”.
With “MFERVREDIQSVFHRDPAARNALEVLTCYPGLHAVWLHRLAHGLWTSGWKWLARLVSNFGRWMTGIEIHPGARIGRRFFIDHGMGIVIGETAEIGDDVTLYQGVTLGGTTWNKGKRHPTLGNNVVVGAGAKVLGPFTVGEGAKVGSNAVVTKEVPPGATVVGIPGRIIMREDSEQQAKRQAMAEKLGFDAYGVSQDMPDPVARAIGQLLDHLQAVDGRLEGMCQALTALGSDYCAKDLPVLREEDFAGVKDEDGNPAALEHHHHHH” the “soluble on expression in E. coli” value was “soluble”.
For “MLFKARKWILSGASAQKSKSMAHTMLVENGFILPTAKGFYSLLPLGQRVIDKLCRILDVEFQNSGALKIAMPIVGTQQLWEKTGRWEAMGPEMIRFHDRQQNHMCLQPTAEEMCTELIATLSPLKKSQFPLIVYQIGEKFRDEMNPRFGLMRGRQFLMKDMYSFSTDAETSQQTYAQIRQIYDRIFGEILQLDEDVIKVEADSGVHGGHISHEYHLKSSLEEDFVNFCENCKNHNKFEGPGPAKCEKCAENSSKTVQKIPSVEIAHTFHLGTKYSEALGAKFQGKPLDMCCFGIGVTRLLPAAIDLLSVSDKALRLPRAIAPFDAVIIVKKSLMSNVIVEMASSSASRYLKGGILLDDRVEMSAGKRIHDANRLGIPFILVIANETERSLATQKPVIEVFTTHAKSAEPMSQGSMSLDRFVTFVQSTLYGGGGAHDSGHLAHNQVLDQLGSHQH”, the “soluble on expression in E. coli” value was “not soluble”.
With “MVDKGVKIKVDYIGKLESGDVFDTSIEEVAKEAGIYAPDREYEPLEFVVGEGQLIQGFEEAVLDMEVGDEKTVKIPAEKAYGNRNEMLIQKIPRDAFKEADFEPEEGMVILAEGIPATITEVTDNEVTLDFNHELAGKDLVFTIKIIEVVE” the “soluble on expression in E. coli” value was “soluble”.
For “MRNMKSTSHESESGKLLSISSCRPREMVLQRYSLGMTVTADRHLADKREEFAVEDISTGIFASGYGQVGDGRSFSFHIEHRSLVVEIYRPRVAGPVPQAEDVVAMAVRGLVDIDLTDERSLAAAVRDSVASAAPVSR”, the “soluble on expression in E. coli” value was “not soluble”.
With “MSNQDYTGVRVEGARKLRSTLKKAGIDVRDDMKQAHKDAASIVSRRAAQITPVGPGSRRHKPGQLKASVRPAGTQTAAIVRAGKKRVPYAGPIQWGWHKRKIKPTFFLTRAASDTEPAWLKGYEKKFNQILDSIEGK” the “soluble on expression in E. coli” value was “not soluble”.
In the case of “QVQLQQPGTELVRPGASVILSCKASGYTFTSYWINWVKQRPGQGLEWVGNIFPSDSYTNYNQKFKDKATLTVDKSSSTAYMQVNSPTSEDSAVYYCTRGARDTWFAYWGQGTLVTVSVAKTTPPSVFPLAPGSAAQTNSMVTLGCLVKGYFPEPVTVTWNSGSLSSGVHTFPAVLQSDLYTLSSSVTVPSSTWPSETVTCNVAHPASSTKVDKKIVPRDC”, the “soluble on expression in E. coli” value is reported as “soluble”.
For “MDRTIYDNYVKILRKELVPALGCTEPIALAYASAKAREVLGEFPEHMTVWCSGNIIKNVKGVKVPNSGGMKGVEAAAVLGLAGGDPSQALEVLEAVTQTDIKRTKELLRESFCDCCLKEGVANLYIEVQVVNGENEATVIIEQEHTNITRIEKNGKIVYAHKKEVSGEEIEVDKSLLNLADILVFAQEVDLNEVRDVLARQIRYNSRIAKEGLEHEWGAQVGRVIAEEFGTTVQWKAVASAAAGSDARMSGCSLPVIINSGSGNQGMTCSLPVIEYGKELKKSEEEIYRALCVSNLVALNQKRYIGSLSAYCGAVCAAAGAGAGITYLCGGNLEQIQNTVVNTIADAGGIVCDGAKPSCAAKIATSLQAAILSHKMAMRGLVFGSGEGLVMDCPEDTIKAVGYVGRAGMKQTDVEILNLMIGKTKIEDIEK”, the “soluble on expression in E. coli” value was “not soluble”.
